Source: the supplement of paper PMC10567573

B1: SCARA5 (parent)
chain: VTEDLRLKDWEHSIALRNISLAKG

Variants of: B1
Assay: protein stability index of a GFP-peptide fusion (GPS, HEK-293T) (PSI 1-6); higher = more stable
Details: c terminus: a fixed tail appended
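Also: lentivirally expressed fusions sorted by FACS into six bins by GFP to DsRed ratio, PSI derived from sequencing read proportions per bin multiplied by bin number.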

Variant	protein stability index
VTEDLRLKDWEHSIALVNISLAKG	1.56
VTEDLRLKDWEHSIALSNISLAKG	3.77
VTEDLRLKDWEHSIALINISLAKG	2.07
VTEDLRLKDWEHSIALNNISLAKG	3.53
VTEDLRLKDWEHSIALQNISLAKG	3.21
VTEDLRLKDWEHSIALCNISLAKG	2.84
VTEDLRLKDWEHSIALKNISLAKG	3.38
VTEDLRLKDWEHSIALDNISLAKG	3.94
VTEDLRLKDWEHSIALFNISLAKG	2.49
VTEDLRLKDWEHSIALHNISLAKG	3.41
VTEDLRLKDWEHSIALENISLAKG	4.06
VTEDLRLKDWEHSIALPNISLAKG	3.56
VTEDLRLKDWEHSIALYNISLAKG	2.58
VTEDLRLKDWEHSIALWNISLAKG	2.26
VTEDLRLKDWEHSIALLNISLAKG	1.8
VTEDLRLKDWEHSIALTNISLAKG	3.19
VTEDLRLKDWEHSIALMNISLAKG	2.56
VTEDLRLKDWEHSIALANISLAKG	3.5
VTEDLRLKDWEHSIALGNISLAKG	3.62
VTEDLRLKDWEHSIALRNIILAKG	2.15
VTEDLRLKDWEHSIALRNIMLAKG	3.24
VTEDLRLKDWEHSIALRNINLAKG	3.54
VTEDLRLKDWEHSIALRNIYLAKG	2.56
VTEDLRLKDWEHSIALRNIPLAKG	3.91

Variant	protein stability index
VTEDLRLKDWEHSIALRNIFLAKG	3.17
VTEDLRLKDWEHSIALRNILLAKG	3.37
VTEDLRLKDWEHSIALRNIELAKG	2.36
VTEDLRLKDWEHSIALRNIWLAKG	3.15
VTEDLRLKDWEHSIALRNIHLAKG	3.04
VTEDLRLKDWEHSIALRNIKLAKG	2.94
VTEDLRLKDWEHSIALRNIVLAKG	3.56
VTEDLRLKDWEHSIALRNIALAKG	3.81
VTEDLRLKDWEHSIALRNIQLAKG	3.54
VTEDLRLKDWEHSIALRNIGLAKG	3.66
VTEDLRLKDWEHSIALRNIRLAKG	3.23
VTEDLRLKDWEHSIALRNIDLAKG	3.67
VTEDLRLKDWEHSIALRNITLAKG	2.86
VTEDLRLKDWEHSIALRNICLAKG	3.21
VTEDLRLKDWEHSIWLRNISLAKG	2.46
VTEDLRLKDWEHSIILRNISLAKG	2.59
VTEDLRLKDWEHSILLRNISLAKG	2.63
VTEDLRLKDWEHSIHLRNISLAKG	3.37
VTEDLRLKDWEHSIRLRNISLAKG	2.74
VTEDLRLKDWEHSINLRNISLAKG	3.42
VTEDLRLKDWEHSIKLRNISLAKG	2.98
VTEDLRLKDWEHSIPLRNISLAKG	3.54
VTEDLRLKDWEHSIQLRNISLAKG	3.59
VTEDLRLKDWEHSIMLRNISLAKG	3.27

Variant	protein stability index
VTEDLRLKDWEHSITLRNISLAKG	3.64
VTEDLRLKDWEHSIDLRNISLAKG	4.2
VTEDLRLKDWEHSIVLRNISLAKG	2.34
VTEDLRLKDWEHSIGLRNISLAKG	3.58
VTEDLRLKDWEHSIFLRNISLAKG	2.86
VTEDLRLKDWEHSIYLRNISLAKG	2.39
VTEDLRLKDWEHSISLRNISLAKG	3.66
VTEDLRLKDWEHSIELRNISLAKG	3.14
VTEDLRLKDWEHSICLRNISLAKG	3.13
VTEDLRLKDWEHSIAERNISLAKG	3.73
VTEDLRLKDWEHSIAKRNISLAKG	3.77
VTEDLRLKDWEHSIADRNISLAKG	4.32
VTEDLRLKDWEHSIAVRNISLAKG	3.98
VTEDLRLKDWEHSIAYRNISLAKG	3.14
VTEDLRLKDWEHSIAGRNISLAKG	4
VTEDLRLKDWEHSIACRNISLAKG	3.37
VTEDLRLKDWEHSIAFRNISLAKG	3.1
VTEDLRLKDWEHSIAQRNISLAKG	4.06
VTEDLRLKDWEHSIARRNISLAKG	3.4
VTEDLRLKDWEHSIAWRNISLAKG	2.91
VTEDLRLKDWEHSIANRNISLAKG	4.12
VTEDLRLKDWEHSIAIRNISLAKG	3.42
VTEDLRLKDWEHSIAPRNISLAKG	4.52
VTEDLRLKDWEHSIAHRNISLAKG	3.45

Variant	protein stability index
VTEDLRLKDWEHSIATRNISLAKG	3.81
VTEDLRLKDWEHSIASRNISLAKG	4.21
VTEDLRLKDWEHSIAMRNISLAKG	3.45
VTEDLRLKDWEHSIAARNISLAKG	3.71
VTEDLRLKDWEHSIALRNISLIKG	3.37
VTEDLRLKDWEHSIALRNISLFKG	3.06
VTEDLRLKDWEHSIALRNISLEKG	3.69
VTEDLRLKDWEHSIALRNISLKKG	3.95
VTEDLRLKDWEHSIALRNISLMKG	2.82
VTEDLRLKDWEHSIALRNISLYKG	2.23
VTEDLRLKDWEHSIALRNISLDKG	3.73
VTEDLRLKDWEHSIALRNISLVKG	3.23
VTEDLRLKDWEHSIALRNISLCKG	3.37
VTEDLRLKDWEHSIALRNISLRKG	3.33
VTEDLRLKDWEHSIALRNISLPKG	3.77
VTEDLRLKDWEHSIALRNISLSKG	3.24
VTEDLRLKDWEHSIALRNISLWKG	2.16
VTEDLRLKDWEHSIALRNISLLKG	2.67
VTEDLRLKDWEHSIALRNISLHKG	3.9
VTEDLRLKDWEHSIALRNISLQKG	3.51
VTEDLRLKDWEHSIALRNISLNKG	3.61
VTEDLRLKDWEHSIALRNISLTKG	2.97
VTEDLRLKDWEHSIALRNISLGKG	3.14
VTEDLRLKDWEHSIALRNISLAKC	2.83

Variant	protein stability index
VTEDLRLKDWEHSIALRNISLAKA	3.4
VTEDLRLKDWEHSIALRNPSLAKG	3.9
VTEDLRLKDWEHSIALRNNSLAKG	3.77
VTEDLRLKDWEHSIALRNDSLAKG	4.54
VTEDLRLKDWEHSIALRNTSLAKG	3.93
VTEDLRLKDWEHSIALRNFSLAKG	3
VTEDLRLKDWEHSIALRNWSLAKG	2.62
VTEDLRLKDWEHSIALRNGSLAKG	3.99
VTEDLRLKDWEHSIALRNHSLAKG	3.69
VTEDLRLKDWEHSIALRNASLAKG	3.71
VTEDLRLKDWEHSIALRNMSLAKG	3.3
VTEDLRLKDWEHSIALRNKSLAKG	4.39
VTEDLRLKDWEHSIALRNSSLAKG	3.98
VTEDLRLKDWEHSIALRNYSLAKG	3.22
VTEDLRLKDWEHSIALRNESLAKG	4.44
VTEDLRLKDWEHSIALRNCSLAKG	4.27
VTEDLRLKDWEHSIALRNRSLAKG	4.25
VTEDLRLKDWEHSIALRNLSLAKG	3.05
VTEDLRLKDWEHSIALRNQSLAKG	4.44
VTEDLRLKDWEHSIALRNVSLAKG	3.74
VTEDLRLKDWEHSIALRYISLAKG	1.95
VTEDLRLKDWEHSIALRWISLAKG	2.47
VTEDLRLKDWEHSIALRQISLAKG	2.93
VTEDLRLKDWEHSIALRPISLAKG	2.81

Variant	protein stability index
VTEDLRLKDWEHSIALRCISLAKG	2.17
VTEDLRLKDWEHSIALRFISLAKG	1.86
VTEDLRLKDWEHSIALREISLAKG	3.68
VTEDLRLKDWEHSIALRDISLAKG	3.81
VTEDLRLKDWEHSIALRHISLAKG	2.96
VTEDLRLKDWEHSIALRAISLAKG	2.25
VTEDLRLKDWEHSIALRTISLAKG	3.58
VTEDLRLKDWEHSIALRRISLAKG	3.15
VTEDLRLKDWEHSIALRGISLAKG	3.6
VTEDLRLKDWEHSIALRLISLAKG	1.35
VTEDLRLKDWEHSIALRKISLAKG	3.5
VTEDLRLKDWEHSIALRIISLAKG	2.47
VTEDLRLKDWEHSIALRSISLAKG	3.37
VTEDLRLKDWEHSIALRVISLAKG	1.76
VTEDLRLKDWEHSIALRMISLAKG	1.81
VTEDLRLKDWEHSIALRNISLAPG	3.44
VTEDLRLKDWEHSIALRNISLATG	2.85
VTEDLRLKDWEHSIALRNISLARG	2.96
VTEDLRLKDWEHSIALRNISLAAG	3.04
VTEDLRLKDWEHSIALRNISLAGG	3.14
VTEDLRLKDWEHSIALRNISLADG	3.84
VTEDLRLKDWEHSIALRNISLAFG	2.35
VTEDLRLKDWEHSIALRNISLAEG	3.93
VTEDLRLKDWEHSIALRNISLASG	3.3

Variant	protein stability index
VTEDLRLKDWEHSIALRNISLAYG	1.64
VTEDLRLKDWEHSIALRNISLAWG	2.22
VTEDLRLKDWEHSIALRNISLAMG	2.16
VTEDLRLKDWEHSIALRNISLACG	3.1
VTEDLRLKDWEHSIALRNISLAIG	2.36
VTEDLRLKDWEHSIALRNISLAVG	2.29
VTEDLRLKDWEHSIALRNISLALG	2.95
VTEDLRLKDWEHSIALRNISLAQG	3.09
VTEDLRLKDWEHSIALRNISLAHG	3.29
VTEDLRLKDWEHSIALRNISLANG	3.48
VTEDLRLKDWEHSFALRNISLAKG	3.21
VTEDLRLKDWEHSNALRNISLAKG	3.96
VTEDLRLKDWEHSTALRNISLAKG	3.59
VTEDLRLKDWEHSYALRNISLAKG	3.37
VTEDLRLKDWEHSKALRNISLAKG	3.86
VTEDLRLKDWEHSGALRNISLAKG	4.17
VTEDLRLKDWEHSPALRNISLAKG	4.76
VTEDLRLKDWEHSWALRNISLAKG	3.29
VTEDLRLKDWEHSVALRNISLAKG	3.75
VTEDLRLKDWEHSMALRNISLAKG	3.4
VTEDLRLKDWEHSQALRNISLAKG	3.91
VTEDLRLKDWEHSHALRNISLAKG	3.47
VTEDLRLKDWEHSLALRNISLAKG	3.3
VTEDLRLKDWEHSSALRNISLAKG	4.22

Variant	protein stability index
VTEDLRLKDWEHSRALRNISLAKG	3.64
VTEDLRLKDWEHSIALRNISMAKG	3.68
VTEDLRLKDWEHSIALRNISVAKG	3.5
VTEDLRLKDWEHSIALRNISEAKG	4.4
VTEDLRLKDWEHSIALRNISNAKG	4.08
VTEDLRLKDWEHSIALRNISYAKG	3.48
VTEDLRLKDWEHSIALRNISHAKG	4.07
VTEDLRLKDWEHSIALRNISAAKG	4.15
VTEDLRLKDWEHSIALRNISDAKG	4.8
VTEDLRLKDWEHSIALRNISPAKG	4.11
VTEDLRLKDWEHSIALRNISTAKG	4.23
VTEDLRLKDWEHSIALRNISQAKG	3.65
VTEDLRLKDWEHSIALRNISCAKG	3.84
VTEDLRLKDWEHSIALRNISKAKG	4.37
VTEDLRLKDWEHSIALRNISGAKG	4.03
VTEDLRLKDWEHSIALRNISIAKG	3.19
VTEDLRLKDWEHSIALRNISSAKG	3.85
VTEDLRLKDWEHSIALRNISFAKG	3.48
VTEDLRLKDWEHSIALRNISWAKG	3.08
VTEDLRLKDWEHSIALRNISRAKG	3.56
